Assay results from US20240150465A1 (Chugai, published 2024).
Each block holds one binder with its values, some of them ahead of it.

Tests used:
[1] = molecular target: T1, human DLL3 (delta-like protein 3 isoform 1 precursor) expressed on Ba/F3 cells (human, UniProt Q9NYJ7 27-618); experiment: cell ELISA, B-cell culture supernatants on immobilized hDLL3/BaF_H3 cells
T1 construct: Full-length cDNA stably transfected into mouse Ba/F3 cells; also called human DLL3 expressing Ba/F3
T1 sequence: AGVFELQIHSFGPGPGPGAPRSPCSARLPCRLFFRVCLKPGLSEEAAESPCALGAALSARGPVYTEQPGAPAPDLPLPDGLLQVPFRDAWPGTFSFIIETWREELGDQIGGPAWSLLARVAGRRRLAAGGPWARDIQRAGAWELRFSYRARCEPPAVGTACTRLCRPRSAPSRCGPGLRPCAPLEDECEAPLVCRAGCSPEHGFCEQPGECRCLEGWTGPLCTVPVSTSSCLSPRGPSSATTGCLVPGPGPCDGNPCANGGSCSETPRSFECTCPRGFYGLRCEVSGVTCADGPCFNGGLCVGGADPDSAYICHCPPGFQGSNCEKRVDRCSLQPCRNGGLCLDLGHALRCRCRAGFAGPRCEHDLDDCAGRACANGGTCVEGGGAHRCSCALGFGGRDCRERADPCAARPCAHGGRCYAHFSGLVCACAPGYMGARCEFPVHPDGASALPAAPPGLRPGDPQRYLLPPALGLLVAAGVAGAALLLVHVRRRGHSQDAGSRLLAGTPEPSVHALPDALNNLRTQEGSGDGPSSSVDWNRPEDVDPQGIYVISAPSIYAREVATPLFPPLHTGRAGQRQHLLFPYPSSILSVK
Experimental: ELISA screening was conducted to test specificity of antibodies in B-cell culture supernatants. Human DLL3 expressing Ba/F3 (hDLL3/BaF_H3 established in Example 2, 2.5×10⁴ cells) were immobilized onto a Nunc MaxiSorp 384-well plate (Sigma-Aldrich) which was pre-coated with BSA (Sigma-Aldrich) and SUNBRIGHT (registered trademark) OE-080CS as Biocompatible Anchor for cell Membrane (YUKA SANGYO). Immobilized cells were incubated with 20 microliters (micro L) of B-cell culture supernatants for 1 hour. The supernatants were aspirated and the cells were washed with HEPES buffer (0.02 M HEPES, 5 mM KCl, 4 mM NaHCO₃, 138 mM NaCl, 2 mM CaCl₂, 5 mM Glucose, 0.4 mM KH₂PO₄, 0.34 mM Na₂HPO₄° and 0.1% BSA). After washing, goat anti-rabbit IgG polyclonal antibody HRP conjugate (BETHYL, A120-111P) was added. The cells were further incubated on ice for 1 hour and washed. Then, ABTS Microwell Peroxidase Substrate (Kirkegaard & Perry Laboratories) was added and OD405 was analyzed with […]ax 384 (Molecular Devices).

del0 = molecular target: T2, del0; experiment: ELISA with the human DLL3 ECD fragment proteins del0 to del6, OD405
T2 construct: also called human DLL3 ECD with Flag-tag on C-terminus
T2 chain: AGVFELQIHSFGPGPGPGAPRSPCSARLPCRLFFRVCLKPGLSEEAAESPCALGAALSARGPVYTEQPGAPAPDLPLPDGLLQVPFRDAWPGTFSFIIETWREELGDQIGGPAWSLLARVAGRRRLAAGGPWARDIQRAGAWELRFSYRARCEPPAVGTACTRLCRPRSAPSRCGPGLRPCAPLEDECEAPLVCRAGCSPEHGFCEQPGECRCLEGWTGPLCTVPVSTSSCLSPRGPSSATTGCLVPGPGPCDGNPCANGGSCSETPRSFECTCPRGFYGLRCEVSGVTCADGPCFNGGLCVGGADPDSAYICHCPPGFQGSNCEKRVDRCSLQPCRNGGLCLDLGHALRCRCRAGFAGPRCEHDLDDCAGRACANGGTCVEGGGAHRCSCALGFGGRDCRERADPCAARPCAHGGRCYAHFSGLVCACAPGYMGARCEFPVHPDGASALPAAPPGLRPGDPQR
Experimental: (§1) Nunc MaxiSorp 384-well plates (Sigma-Aldrich) were coated with each of the human DLL3 ECD fragment proteins del0 to del6, and blocked with 20% Blocking One (NACALAI TESQUE). Blocking buffer was removed and recombinant anti-DLL3 antibodies were incubated with the immobilized proteins for 1 hour at room temperature and washed with HEPES buffer (0.05% Tween20, HEPES). Monoclonal ANTI-FLAG M2-Peroxidase, Clone M2 (Sigma-Aldrich) was then added and incubated for 1 hour at room temperature and washed. Then, ABTS Microwell Peroxidase Substrate (Kirkegaard & Perry Laboratories) was added and OD405 was analyzed with […]ax 384 (Molecular Devices).

recombinant human DLL3 [2] = molecular target: T3, recombinant human DLL3 (human, UniProt Q9NYJ7 27-492); experiment: Octet binning on SA sensor; Antibody A (biotinylated, loaded first): DL309-SG1; then 20 nM human DLL3, then 80 nM Antibody B
T3 sequence: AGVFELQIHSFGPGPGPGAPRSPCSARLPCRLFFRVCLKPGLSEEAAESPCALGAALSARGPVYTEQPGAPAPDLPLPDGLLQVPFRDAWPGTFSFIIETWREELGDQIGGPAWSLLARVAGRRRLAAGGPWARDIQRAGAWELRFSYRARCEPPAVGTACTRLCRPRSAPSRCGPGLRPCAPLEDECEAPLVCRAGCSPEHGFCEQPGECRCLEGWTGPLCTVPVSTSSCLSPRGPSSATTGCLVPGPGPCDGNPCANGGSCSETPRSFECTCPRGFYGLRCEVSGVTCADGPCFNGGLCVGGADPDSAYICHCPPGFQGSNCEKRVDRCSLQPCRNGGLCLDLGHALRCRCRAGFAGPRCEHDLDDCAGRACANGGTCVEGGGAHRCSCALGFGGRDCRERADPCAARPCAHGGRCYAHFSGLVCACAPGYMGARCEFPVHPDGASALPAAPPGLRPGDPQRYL
Experimental: (§2) Octet (registered trademark) RED384 (Fortebio) was used to perform competitive binding assays by epitope binning for a panel of antibodies. A biotinylated antibody (DL301-SG1, DL306-SG1, DL309-SG1, DL312-SG1, D30316AE02-SG1, and D30841AE05-SG1) at 40 nM was first loaded to a streptavidin (SA) biosensor. Next, the sensor is exposed to 20 nM of human DLL3, followed by exposure to 80 nM of second antibody. The second antibodies are DL301-SG1, DL306-SG1, DL309-SG1, DL312-SG1, D30316AE02-SG1, D30841AE05-SG1, DLL3-14-SG1, DLL3-22-SG1, DLL3-4-SG1 and DLL3-6-SG1. Raw data was processed using ForteBio's Data Analysis Software 7.0 and the antibody pairs were assessed for competitive binding. Additional binding by the second antibody indicates an unoccupied epitope (non-competitor), while no binding indicates epitope blocking (competitor).
(§3) The competition ratio of antibody B to antibody A was calculated using the following equation: Competition Ratio (Antibody B to Antibody A)=[Binding Response (Antibody B-Antigen)]/[Binding Response (Antigen-Antibody A)]

recombinant human DLL3 [3] = molecular target: T3, recombinant human DLL3; experiment: Octet binning on SA sensor; Antibody A (biotinylated, loaded first): DL306-SG1; then 20 nM human DLL3, then 80 nM Antibody B
Experimental: as §2, §3

recombinant human DLL3 [4] = molecular target: T3, recombinant human DLL3; experiment: Octet binning on SA sensor; Antibody A (biotinylated, loaded first): D30841AE05-SG1; then 20 nM human DLL3, then 80 nM Antibody B
Experimental: as §2, §3

recombinant human DLL3 [5] = molecular target: T3, recombinant human DLL3; experiment: Octet binning on SA sensor; Antibody A (biotinylated, loaded first): DL301-SG1; then 20 nM human DLL3, then 80 nM Antibody B
Experimental: as §2, §3

recombinant human DLL3 [6] = molecular target: T3, recombinant human DLL3; experiment: Octet binning on SA sensor; Antibody A (biotinylated, loaded first): DL312-SG1; then 20 nM human DLL3, then 80 nM Antibody B
Experimental: as §2, §3

recombinant human DLL3 [7] = molecular target: T3, recombinant human DLL3; experiment: Octet binning on SA sensor; Antibody A (biotinylated, loaded first): D30316AE02-SG1; then 20 nM human DLL3, then 80 nM Antibody B
Experimental: as §2, §3

del5 = molecular target: T4, del5; experiment: ELISA with the human DLL3 ECD fragment proteins del0 to del6, OD405
T4 construct: also called truncated human DLL3 ECD variant with Flag-tag on C-terminus
T4 chain: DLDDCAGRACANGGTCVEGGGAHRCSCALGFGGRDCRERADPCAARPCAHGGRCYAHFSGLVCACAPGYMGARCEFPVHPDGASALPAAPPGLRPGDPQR
Experimental: as §1

del6 = molecular target: T5, del6; experiment: as above
T5 construct: also called truncated human DLL3 ECD variant with Flag-tag on C-terminus
T5 chain: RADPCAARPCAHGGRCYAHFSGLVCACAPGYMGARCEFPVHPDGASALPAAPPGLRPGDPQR
Experimental: as §1

binding result [1]: binds
binding result (del0): binds
B1: DLA0841 (antibody, human IgG1, V domains shown)
VH: QEQLVESGGGLVQPEGSLTLTCTASGFSFSSSYDMCWVRQAPGKGPEWIACIYTGDGSTDYASWAKGRFTVSKASSTTVTLQMTSLAVADTATYFCARNSGYGYFGLWGPGTLVTVSS
VL: QVLTQTPSPVSAAVGGTVTISCQSTESVYGSDWLSWYQQKPGQPPKVLIYQASNLEIGVPSRFKGSGSGTQFTLTISGAQCDDAATYYCQGYYSGYIYAFGGGTEVVVK
notes: Rabbit B-cell clone, screened as B-cell culture supernatant

competition ratio (Antibody B to Antibody A) (recombinant human DLL3 [2]): 1
competition ratio (Antibody B to Antibody A) (recombinant human DLL3 [3]): 1.4
competition ratio (Antibody B to Antibody A) (recombinant human DLL3 [4]): 1.4
competition ratio (Antibody B to Antibody A) (recombinant human DLL3 [5]): 1.2
competition ratio (Antibody B to Antibody A) (recombinant human DLL3 [6]): 1.5
competition ratio (Antibody B to Antibody A) (recombinant human DLL3 [7]): 1.4
B2: DLL3-14-SG1 (antibody, human IgG1, kappa, V domains shown)
VH: QVQLVQSGAEVKKPGASVKVSCKASGYTFTNYYMHWVRQAPGLGLEWMGIINPSDGSTSYAQKFQGRVTMTRDTSTNTVYMDLSSLRSEDTAVYYCARGGNSAFYSYYDMDVWGQGTTVTVSS
VL: DVVMTQTPLSLPVTLGQPASISCRSSQSLVYRDGNTYLSWFQQRPGQSPRRLIYKVSNWQSGVPDRFSGGGSGTDFTLKISRVEAEDVGVYYCMQGTHWPPTFGQGTKVEIKR
notes: Variable regions of a previously reported anti-DLL3 antibody on SG1/SK1; Used as a second antibody only

binding result [1]: binds
binding result (del0): binds
binding result (del5): no binding
binding result (del6): no binding
B3: DLA0106 (antibody, human IgG1, V domains shown)
VH: QSVEESGGRLVTPGTPLTLTCTVSGIDLSSYAMSWVRQAPGKGLEWIGIISNSGSGFYANWAKGRFTISKTSSTTVDVKISSPTTEDTATYFCARVFDADSSGYYYYGMDPWGPGTLVTVSS
VL: DVVMTQTPSSVSEPVGGTVTIKCQASEDIESYLAWYQQKPGQPPKLLIYAASTLASGVSSRFRGSGSGTEYTLTISDLECADAATYYCQSTYYDSSGVDWAFGGGTEVVVK
notes: as for B1

binding result [1]: binds
binding result (del0): binds
B4: DLA0769 (antibody, human IgG1, V domains shown)
VH: QEQLVESGGGLVQPEGSLTLTCTASGFSFSSSGYMCWVRQAPGKGLEWIACISGGSSGDTDYANWAKGRFSISKTSSTTVTLQMTSLTVADTATYFCARDVYIDSTIFNFNLWGPGTLVTVSS
VL: QVLTQTPSPVSAAVGGTVTISCQASQSVYNNNNLAWYQQKPGQPPKLLIYAASSLASGVPSRFKGSGAGTQFTLTISDLECDDAATYYCQGTYYSSGWYSTFGGGTEVVVK
notes: as for B1

binding result [1]: binds
binding result (del0): binds
B5: DLA0316 (antibody, human IgG1, V domains shown)
VH: QEQLVESGGGLVQPGGSLKLSCKVSGFDFSNYGVSWVRQAPGKGLEWIGYIDPAFGRTYYASWVNGRFTISSHNAQNTLYLQLNSLTAADTATYFCVRVALVVAGVAYYGMDVWGPGTLVTVSS
VL: DVVMTQTPASVEAAVGGTVTINCQASQNIYSYLSWYQQKPGQPPKLLIYRTSTLASGVPSRFKGSGSGTQFTLTISDLECADAATYYCQSYYYSSGSSYGAFAFGGGTEVVVK
notes: as for B1

competition ratio (Antibody B to Antibody A) (recombinant human DLL3 [2]): 0.8
competition ratio (Antibody B to Antibody A) (recombinant human DLL3 [3]): -0.1
competition ratio (Antibody B to Antibody A) (recombinant human DLL3 [4]): 0
competition ratio (Antibody B to Antibody A) (recombinant human DLL3 [5]): 0.9
competition ratio (Antibody B to Antibody A) (recombinant human DLL3 [6]): 1.1
competition ratio (Antibody B to Antibody A) (recombinant human DLL3 [7]): 1.3
B6: D30841AE05-SG1 (antibody, human IgG1, kappa, V domains shown)
VH: QVQLKESGPALVKPTQTLTLTCTFSGFSLSSSYDMGWVRQAPGQGLEWMGTIYTGDYSTDYASWAKGRVTITADESTSTAYMELSSLRSEDTAVYYCARNTGYGYFGLWGQGTLVTVSS
VL: DIQLTQSPSFLSASVGDRVTITCQSTESVYGSDWLSWYQQKPGQPPKLLIYQASNLEIGVPSRFSGSGSGTDFTLTINSLEAEDAATYYCQGYYSGYIYAFGGGTKVEIKR
notes: Humanized variant of DLA0841 with SG1 heavy and SK1 light constant regions; Labelled with NHS-PEG4-Biotin when used as the first (immobilized) antibody in the Octet assay

binding result [1]: binds
binding result (del0): binds
B7: DLA0641 (antibody, human IgG1, V domains shown)
VH: QEQLVESGGGLVQPGASLTLTCKASGFSFNTSYCPCWVRQVPGKGPEWIACIDAGYSGATWYANWAKGRFTISKTSSTTVTLQMTSLTGADTATYFCVRCDAAGSGAFNLWGPGTLVTVSS
VL: AYDMTQTPASVEVPVGGTVTIKCQASQSIYSYLSWYQQKPGQPPKLLIYEASKLTSGVPSRFSGSGSGTEFTLTISGVQCDDAATYYCQQGSGYMDVDNVFGGGTEVVVK
notes: as for B1
